Measurements taken from US20190307797A1 (MAX DELBR CK CENTRUM F R MOLEKULARE MEDIZIN IN DER …, published 2019).

Target: T1, purified BCMA (CD269) extracellular domain (human, UniProt Q02223 4-54)
T1 construct: also called BCMA extracellular domain; extracellular domain of CD269
T1 sequence: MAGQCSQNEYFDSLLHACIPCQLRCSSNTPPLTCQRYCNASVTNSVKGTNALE
Test: co-crystallisation, crystal structure of the complex

binding result: binds
B1: Fab fragment prepared from the mouse or chimeric antibody from which the CAR was derived (chimeric antibody J22.9-xi) (Fab, V domains shown)
VH: QVQLQQSGGGLVQPGGSLKLSCAASGIDFSRYWMSWVRRAPGKGLEWIGEINPDSSTINYAPSLKDKFIISRDNAKNTLYLQMSKVRSEDTALYYCASLYYDYGDAMDYWGQGTSVTVSS
VL: DIVMTQSQRFMTTSVGDRVSVTCKASQSVDSNVAWYQQKPRQSPKALIFSASLRFSGVPARFTGSGSGTDFTLTISNLQSEDLAEYFCQQYNNYPLTFGAGTKLELKR
notes: also called J22.9-xi Fab; Fab fragments prepared from mouse or chimeric antibodies
